Data published in the supplement of paper PMC10126150.
± gives the standard deviation of the averaged measurements.

System: ATP
Experiment: switch fluorescence ratio, 500 uM ATP over buffer (Cy3 cluster intensity, sum of 5 cycles each) (fold (ratio)); higher = stronger signal-on switching upon ATP binding; sequences stand for … in TCGTCGGCAGCGTCAGATGTGTATAAGAGACAGTTTTTTTTTTTTTTTTTTTTTTTTT…TC
Conditions: aptamer strand: ATP DNA aptamer (quencher-CACCTGGGGGAGTATTGCGGAGGAAGG + anchor), 100 nM annealed; ATP concentration: 500 uM
Method in brief: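 Clusters carrying Cy3-labelled switching strands on a modified Illumina MiSeq flow-cell were annealed to 100 nM quencher-labelled ATP aptamer and imaged in selection buffer. They were imaged again after 15 min with 500 uM ATP at 22 °C, over five buffer/ATP cycles with NaOH stripping and re-annealing in between. For each cluster, the fluorescence ratio is the summed Cy3 intensity of the target cycles divided by that of the buffer cycles, averaged per switch-domain sequence. Clusters outside 100-1000 RFU were left out.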
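Note: ATP exposure 15 min at 22 °C before imaging.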

Sequence	switch fluorescence ratio
AGCATCACTT	1.04 ± 0.029
AGCCGTACTC	1.2 ± 0.23
TCGGGGGATT	0.966 ± 0.028
GCGTTGATGT	0.981 ± 0.017
TTGCCGCTTG	1.21 ± 0.33
ATTCATTTTA	0.999 ± 0.034
TGGGGTTACT	1.01 ± 0.015
AGTAATTTGT	0.988 ± 0.019
GATAGCCTGT	1.01 ± 0.027
TAAATGAGGT	0.998 ± 0.015
TTTTTGATCG	0.997 ± 0.039
ATGGTTTAGA	1.03 ± 0.031
TTAATTTAAG	0.992 ± 0.038
ATGGTGGGTG	1.03 ± 0.046
TTTAGGGGTC	0.981 ± 0.024
TTCGACTCCT	1.09 ± 0.087
TAAAGTTTGT	0.958 ± 0.026
ATATATATAT	1.01 ± 0.012
CGCATCTGGG	1.09 ± 0.017
CCGCGAGGGT	1.57 ± 0.29
TTGTTAAGTG	1.02 ± 0.1
TTGGGGGTGT	1.03 ± 0.1
TTAGAAGCCT	1.14 ± 0.02

Sequence	switch fluorescence ratio
GAGTATGCGC	0.996 ± 0.017
ACGGGAGTGG	0.998 ± 0.011
GTTTTTGACG	0.955 ± 0.042
AAGTGGAAAT	0.9962 ± 0.0019
GCAATTTGAT	1.01 ± 0.02
CCTGGGCCCA	1.09 ± 0.15
AGTTCGTTTT	0.987 ± 0.019
CCCGGGGTGT	3.55 ± 0.15
TTGCGGGAAC	1.07 ± 0.063
TAGAGACCTG	1 ± 0.071
AACTTGTGTG	0.989 ± 0.042
ATATGTCTAG	0.989 ± 0.01
TTTTTTACCA	1.01 ± 0.036
CTATAGATTT	0.973 ± 0.02
TGGTAATGGT	1.03 ± 0.074
TGGCGGAATT	1.02 ± 0.02
CCCGTGGGGA	1.2 ± 0.15
TTCTAATTAT	0.981 ± 0.019
TGAATTCGGG	1.01 ± 0.064
TATCTTACCA	0.988 ± 0.032
GGTGTTTATG	0.9841 ± 0.0034
CATGGGAGGG	1.01 ± 0.029
TCAATAGCCG	1.12 ± 0.14

Sequence	switch fluorescence ratio
CAGAAGGGTG	1.02 ± 0.011
TGGAAGATGT	1.02 ± 0.03
ATAATGTGCA	1.024 ± 0.0071
TTTTTGACTT	1.005 ± 0.0092
TGGGAACGCG	1.003 ± 0.0076
AGGGCCTGGG	0.999 ± 0.04
TGGTGGCTTT	0.996 ± 0.015
CTTCACATCG	1.03 ± 0.041
TAAGGTTCTT	1.01 ± 0.011
TGATACACGT	1 ± 0.013
TTGAGGGGAG	1.01 ± 0.012
AGGACTGGCA	0.991 ± 0.038
AGGCCTTTTG	0.956 ± 0.033
AGGATTTATG	0.962 ± 0.021
GCGTAAAGTG	0.994 ± 0.038
TTAAGGGAGC	1.02 ± 0.052
AAGAATTTTT	1 ± 0.023
GTTTGTGTTG	0.993 ± 0.017
GGGAAAGAGG	0.991 ± 0.048
CTGTTCGGCG	0.979 ± 0.042
TGGTGTGTCA	1.005 ± 0.0092
GGTTTCTTGC	1.02 ± 0.011
TGCAGAAGCC	1.02 ± 0.026

Sequence	switch fluorescence ratio
GGGTGCTGTT	1.02 ± 0.036
AACCCCGGGG	1.02 ± 0.067
TCGGTGGGTG	1.012 ± 0.0066
TCGGACTATA	1.06 ± 0.033
TTGGACTAGT	1.018 ± 0.0023
TAGTAGGCGC	0.968 ± 0.035
AGTTAGTTTT	1 ± 0.017
AATTGTACGG	1.04 ± 0.013
CATATATTTT	1.04 ± 0.058
TTAAAAGTGG	1.01 ± 0.022
TCCTGGGGGC	1.02 ± 0.058
CAGCGTCTTT	0.994 ± 0.012
TTCCTATTGA	0.99 ± 0.049
TGAATGGAGG	0.988 ± 0.042
CAGGTTTGGT	0.984 ± 0.021
GTAGGGGAGC	0.977 ± 0.06
GCTTATGTTC	1.015 ± 0.0097
GTGTTGAGGT	0.984 ± 0.022
TCCGTTTGTG	1 ± 0.024
TTCGGGCTAG	1.013 ± 0.0052
TGGTATAGGC	1.04 ± 0.027
TTTTCTGGGG	0.994 ± 0.032
TTTGAGGATT	1 ± 0.027

Sequence	switch fluorescence ratio
TTTTCAGATG	1.02 ± 0.015
TGAGAGGGAC	1.05 ± 0.013
CAGAATTGAG	0.995 ± 0.0026
CAAGGTCGTA	1 ± 0.029
CCTGAAAGGT	1.003 ± 0.0079
TAAAGCTGAT	1.01 ± 0.012
AGGGTCTTCG	1.04 ± 0.012
TTGGGGGTCA	1.01 ± 0.023
AATGTCGCTG	1.003 ± 0.0018
GTATAAGTTG	1.02 ± 0.047
CTTTTTGGGT	0.968 ± 0.028
CCGGGTGACA	1.25 ± 0.048
TTGTGATTGT	1.01 ± 0.016
ATGAAAGTAT	1.011 ± 0.0061
CGGATGAGTA	0.988 ± 0.029
CAGTAATGCG	0.99757 ± 0.00094
GTGGGCGATT	1.01 ± 0.024
TGGCTGTCTT	0.97 ± 0.13
TTAATTGTAT	0.992 ± 0.034
GGATTTGAAT	1.03 ± 0.031
AGGTAAAGGG	0.996 ± 0.04
ACAGGGAAAT	0.994 ± 0.038
TTTTTGGCAC	0.982 ± 0.029

Sequence	switch fluorescence ratio
TGGGGATCTT	0.972 ± 0.057
TATTTTCAGA	1.04 ± 0.014
CCTGACAGCG	1.012 ± 0.0083
GATCATCGAT	1.02 ± 0.013
TGAAAAACGT	0.991 ± 0.013
CGAATGCGTT	0.973 ± 0.021
ACCGCATAGT	2.57 ± 0.099
TCTTCTAGCT	1.05 ± 0.019
TACGGATTAG	1.051 ± 0.0051
CGCTTTCACC	1.218 ± 0.0019
TCTTAGAAC	1.009 ± 0.0062
CTCCTACACC	1.25 ± 0.041
CAAGTACATG	1.2 ± 0.014
TTGAGTTTGC	1 ± 0.051
TGTCACAGGG	1.063 ± 0.007
CCCATGCAAG	1.3 ± 0.32
AAACGGCACG	1.009 ± 0.0032
ACGTCCATTT	1.06 ± 0.011
TAGCACGGCA	1.06 ± 0.029
GTCGTTGGTG	1 ± 0.056
ATCTGGGGAA	1.01 ± 0.045
AGGTGACTCG	1.04 ± 0.017
CTAGGGTAAT	0.9675 ± 0.0036

Sequence	switch fluorescence ratio
CCTTCTTGGG	1.015 ± 0.0033
CGGGGTGCTA	1.007 ± 0.0077
CAGGTCCGCT	1.12 ± 0.036
CACGGTTTCT	1.09 ± 0.13
AAAAAAGGTG	1.16 ± 0.22
TTGTTGAGTC	1 ± 0.032
GCGGGCGGGG	1.02 ± 0.05
TCGTGTTCGG	0.971 ± 0.029
CATCAGTGGT	1.03 ± 0.032
AATCGGAGCT	1.09 ± 0.026
ATTAAGAATT	0.9986 ± 0.0027
GAATATTGAG	0.99 ± 0.019
TACGGTACGG	1.18 ± 0.04
GCCCACTATT	0.988 ± 0.01
GGAATAGTGC	1.01 ± 0.052
GGGTACGAG	1.018 ± 0.01
CGCGTCCGTC	1.03 ± 0.056
CCGGGACAGC	1.17 ± 0.077
ATTAGGATTT	0.998 ± 0.0097
